For assay [1], the target named is T1, human fXII with the kringle domain replaced with the corresponding domain from HGFA (human, UniProt P00748 20-216; Q04756 286-367; P00748 296-615, limits assumed).
T1 construct: Expressed in human fibroblasts (HEK293) and blotted from conditioned medium; also called fXII/HGFA kringle domain chimera; KNG
T1 sequence (looked up): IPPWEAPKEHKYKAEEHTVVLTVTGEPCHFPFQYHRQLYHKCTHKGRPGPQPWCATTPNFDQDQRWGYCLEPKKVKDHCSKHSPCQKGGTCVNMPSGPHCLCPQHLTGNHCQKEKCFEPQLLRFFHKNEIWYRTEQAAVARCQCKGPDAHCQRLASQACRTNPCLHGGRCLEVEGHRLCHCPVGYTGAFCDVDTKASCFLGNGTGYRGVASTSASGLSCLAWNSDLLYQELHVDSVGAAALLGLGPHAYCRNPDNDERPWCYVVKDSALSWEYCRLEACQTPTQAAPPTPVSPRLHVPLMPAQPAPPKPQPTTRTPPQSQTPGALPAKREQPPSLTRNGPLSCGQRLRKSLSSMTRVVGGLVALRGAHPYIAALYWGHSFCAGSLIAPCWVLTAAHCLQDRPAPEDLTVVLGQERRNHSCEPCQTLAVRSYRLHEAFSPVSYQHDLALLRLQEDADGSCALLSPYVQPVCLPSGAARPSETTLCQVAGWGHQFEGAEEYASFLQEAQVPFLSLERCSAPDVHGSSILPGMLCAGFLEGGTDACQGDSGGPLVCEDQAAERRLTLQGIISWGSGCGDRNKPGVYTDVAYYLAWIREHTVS
Kind of assay: Western blot after SDS-PAGE. From the text: (§1) AB043 and AB042 both recognize baboon and human fXII, indicating they can be used for studies in baboon thrombosis models. […] Chimeras in which individual fXII domains were replaced with those of HGFA were expressed in human fibroblasts.
(Immunoblotting shows a protein as a band on a membrane.)

Assay [2] deals with T2, human fXII with the EGF2 domain replaced with the corresponding domain from HGFA (human, UniProt P00748 20-173; Q04756 241-279; P00748 211-615, limits assumed).
T2 construct: Expressed in human fibroblasts (HEK293) and blotted from conditioned medium; also called fXII/HGFA chimera for the EGF2 domain
T2 sequence (looked up): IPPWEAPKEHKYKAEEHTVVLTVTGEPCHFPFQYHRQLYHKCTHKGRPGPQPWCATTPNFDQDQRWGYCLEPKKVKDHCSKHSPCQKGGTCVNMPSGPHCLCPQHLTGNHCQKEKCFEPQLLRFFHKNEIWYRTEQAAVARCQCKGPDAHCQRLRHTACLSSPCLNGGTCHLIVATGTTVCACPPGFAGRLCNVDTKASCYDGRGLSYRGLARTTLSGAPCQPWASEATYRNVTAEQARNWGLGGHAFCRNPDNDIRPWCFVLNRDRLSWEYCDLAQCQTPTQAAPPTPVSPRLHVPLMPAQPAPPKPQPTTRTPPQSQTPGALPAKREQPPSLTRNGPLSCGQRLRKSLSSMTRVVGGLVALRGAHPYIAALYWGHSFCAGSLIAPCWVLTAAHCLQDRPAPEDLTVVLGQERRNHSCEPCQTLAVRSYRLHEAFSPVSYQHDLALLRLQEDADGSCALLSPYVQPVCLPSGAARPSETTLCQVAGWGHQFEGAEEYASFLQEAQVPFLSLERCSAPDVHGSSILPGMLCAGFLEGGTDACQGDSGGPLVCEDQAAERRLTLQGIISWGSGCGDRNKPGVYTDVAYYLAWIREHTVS
Kind of assay: Western blot after SDS-PAGE.
Excerpt: as §1

B1: monoclonal anti-human fXII antibody AB042 (antibody, V domains shown)
VH: EVQLQQSGAELVRPGASVKLSCTASGFNIKDDYMHWVKQRPEQGLEWIGWIDPENGDTEYASKFQGKATITSDTSSNTAYLQLSSLTSEDTAVYYCTENYYGSSFFAYWGQGTLVTVSA
VL: DIVMTQATPSVPVTPGESVSISCRSSKSLLHSNGITYLYWFLQRPGQSPQRLIYYMSNLASGVPDRFSGRGSGTDFTLRISRVEAEDVGVYYCMQSLEYPYTFGGGTKLEIKR
notes: Mouse hybridoma IgG raised in fXII knockout mice immunized with human fXII
On to B1, for which the binding result in assay [1] and in assay [2] was “no binding” each time.
